The record followed here is patent publication US6251583A, “Peptide substrates for HCV NS3 protease assays” (Schering Corporation, priority 1999, dated 2001).

“And” between values parts separate entries of the source, which are not always exact repeats. Identical values can stand only once. Square brackets hold non-standard residues; d marks the D form. Peptide text beside a SMILES is read from it. * marks the point of attachment. ONp = O=[N+]([O-])c1ccc(O*)cc1; X2 = c1ccc(N=Nc2ccc(O*)cc2)cc1; X3 = O=[N+]([O-])c1cccc(O*)c1; X1 = Cc1cc(=O)oc2cc(O*)ccc12; Nva = CCC[C@H](N)C(=O)O

Test [1] addresses (Ac-)[…]-(2-Cl-4-nitroanilide) (HCV).
For test [2], the target named is Ac-DTEDVVA(Nva)-O-3Np (HCV).
For test [3], the target named is Ac-DTEDVVA(Nva)-O-4Np (HCV).
In test [4] the target is Ac-DTEDVVA(Nva)-O-HMC (HCV).
In test [5] the target is Ac-DTEDVVA(Nva)-O-PAP (HCV).
For test [6], the target named is Ac-DTEDVVP(Nva)-O-HMC (HCV).
Test [7] has as its target Ac-DTEDVVP(Nva)-O-PAP (HCV).
In test [8] the target is biotinylated amide substrates.
In test [9] the target is biotinylated ester substrate.
The target of another test is T1, NS3/4A(1-631)/4A(1-54) (Hepatitis C virus genotype 1a, UniProt P27958).
T1 construct: a noncovalent complex between NS4A (54 residues) and NS3 (631 residues); histidine tag (N, cleaved yes); made in house; host or cells: baculovirus system / insect cells
Briefly: Cleavage efficiency of nitrophenyl and other ester based chromogenic substrates, spectrophotometric. It is filed as biochemical, HCV 1a(H). Particulars: 25 mM MOPS pH 6.5, 10% glycerol, 0.15 M NaCl, 0.2% lauryl maltoside. The method, then: The chromogenic substrates defined by SEQ ID NOs: 5-13 were synthetically produced as described above and tested for cleavage efficiency in 25 mM MOPS buffer, pH 6.5, containing 10% (v/v) glycerol, 0.15 M NaCl, 0.2% lauryl maltoside. The substrates were cleaved by NS3/4A(1-631)/4A(1-54) (see Example 1). The rate of product formation was monitored by a spectrophotometer, at 400 nm for 4Np, 370 nm for PAP, and 340 nm for 3Np and HMC.

In general, kcat/Km refers to the second-order rate constant that governs catalysis at low substrate concentration. For the compound “HCV NS3(1-631)/4A(1-54) protease, non-covalent complex of full-length HCV 1a(H) NS3 with amino acids (enzyme)”, the catalytic efficiency (kcat/Km) is 10 M⁻¹ s⁻¹ in test [1]; 15 M⁻¹ s⁻¹ and 45 M⁻¹ s⁻¹ with …-(4-nitroanilide) (HCV); 7300 M⁻¹ s⁻¹ in [2]; 38000 M⁻¹ s⁻¹ in [3]; 8400 M⁻¹ s⁻¹ in [4]; 4000 M⁻¹ s⁻¹ in test [5]. In addition, the kcat/Km in test [6] turned out to be 8400 M⁻¹ s⁻¹; in test [7], 13000 M⁻¹ s⁻¹; with Ac-[…](Nva)-O-4Np (HCV) it was 25000 M⁻¹ s⁻¹; in test […](Nva)-O-3Np (HCV), 11100 M⁻¹ s⁻¹. Further, the values for the catalytic efficiency in [8] and in test [9] were < 30000 M⁻¹ s⁻¹ and < 460000 M⁻¹ s⁻¹, respectively.
What is called Km is the concentration of substrate that gives half-maximal velocity. On to `CCC[C@H](NC(=O)[C@H](C)NC(=O)[C@@H](NC(=O)[C@@H](NC(=O)[C@H](CC(=O)O)NC(=O)[C@H](CCC(=O)O)NC(=O)[C@@H](NC(=O)[C@H](CC(=O)O)NC(C)=O)[C@@H](C)O)C(C)C)C(C)C)C(=O)Oc1ccc([N+](=O)[O-])cc1` [Ac-DTEDVVA(Nva)-O-4Np] (Ac-DTEDVVA[Nva]-ONp), for which the Km on NS3/4A(1-631)/4A(1-54) was found to be 16 µM.
On the same count and under the same terms, the same measure for `CCC[C@H](NC(=O)[C@@H]1CCCN1C(=O)[C@@H](NC(=O)[C@@H](NC(=O)[C@H](CC(=O)O)NC(=O)[C@H](CCC(=O)O)NC(=O)[C@@H](NC(=O)[C@H](CC(=O)O)NC(C)=O)[C@@H](C)O)C(C)C)C(C)C)C(=O)Oc1ccc(N=Nc2ccccc2)cc1` [Ac-DTEDVVP(Nva)-O-PAP] (Ac-DTEDVVP[Nva]-X2): 18 µM; for `CCC[C@H](NC(=O)[C@@H]1CCCN1C(=O)[C@@H](NC(=O)[C@@H](NC(=O)[C@H](CC(=O)O)NC(=O)[C@H](CCC(=O)O)NC(=O)[C@@H](NC(=O)[C@H](CC(=O)O)NC(C)=O)[C@@H](C)O)C(C)C)C(C)C)C(=O)Oc1ccc2c(C)cc(=O)oc2c1` [Ac-DTEDVVP(Nva)-O-HMC] (Ac-DTEDVVP[Nva]-X1): 40 µM; for `CCC[C@H](NC(=O)[C@H](C)NC(=O)[C@@H](NC(=O)[C@@H](NC(=O)[C@H](CC(=O)O)NC(=O)[C@H](CCC(=O)O)NC(=O)[C@@H](NC(=O)[C@H](CC(=O)O)NC(C)=O)[C@@H](C)O)C(C)C)C(C)C)C(=O)Oc1cccc([N+](=O)[O-])c1` [Ac-DTEDVVA(Nva)-O-3Np] (Ac-DTEDVVA[Nva]-X3): 48 µM.
The same measure, in the same setting: the same measure for `CCC[C@H](NC(=O)[C@H](C)NC(=O)[C@@H](NC(=O)[C@@H](NC(=O)[C@H](CC(=O)O)NC(=O)[C@H](CCC(=O)O)NC(=O)[C@@H](NC(=O)[C@H](CC(=O)O)NC(C)=O)[C@@H](C)O)C(C)C)C(C)C)C(=O)Oc1ccc2c(C)cc(=O)oc2c1` [Ac-DTEDVVA(Nva)-O-HMC] (Ac-DTEDVVA[Nva]-X1): 20 µM; for `CCC[C@H](NC(=O)[C@H](C)NC(=O)[C@@H](NC(=O)[C@@H](NC(=O)[C@H](CC(=O)O)NC(=O)[C@H](CCC(=O)O)NC(=O)[C@@H](NC(=O)[C@H](CC(=O)O)NC(C)=O)[C@@H](C)O)C(C)C)C(C)C)C(=O)Oc1ccc(N=Nc2ccccc2)cc1` [Ac-DTEDVVA(Nva)-O-PAP] (Ac-DTEDVVA[Nva]-X2): 17 µM.
